# From article PMC2650471, “The structure of NMB1585, a MarR-family regulator from Neisseria meningitidis” (Acta Crystallographica Section F: Structural Biology and …, 2009)
# B1: NMB1585, MarR-family transcription factor from Neisseria meningitidis (natural protein)
# chain: MNQLDQLGTRINLICNVFDKWIGQQDLNYNLFAVLYTLATEGSRTQKHIGEKWSLPKQTVSGVCKTLAGQGLIEWQEGEQDRRKRLLSLTETGKAYAAPLTESAQEFSDKVFATFGDKRTTRLFADLDALAEVMEKTISENKK
# modifications: selenomethionine-labelled (selenomethionine in place of methionine)
# notes: NMB1585, MarR-family regulator, Neisseria meningitidis strain MC58; amplified from genomic DNA with primers that run from the ATG start codon to the stop codon; cloned into pDEST17 with an N-terminal His tag and a 3C protease cleavage site; also called meningococcal MarR; source: tag removed with 3C protease; not shown: His tag, N-terminal, cleaved
# Target: the molecule itself
# Assay: crystal structure; selenomethionine-labelled NMB1585, 9.7 mg/ml in 20 mM Tris pH 7.5, 200 mM NaCl, 1 mM TCEP; crystals from 0.1 M HEPES pH 7.5, 25% PEG 3350, 0.2 M ammonium chloride; space group P2(1), two subunits per asymmetric unit; 2.1 Å
protein,measurement,value
B1,stoichiometry N,2
